From US20260234267A1 (KAIGENE, published 2026)
Residue numbers refer to the chain shown, from its start. Numbers in names are those of the source. Each block holds one binder with its values, some of them ahead of it.

Target: Mac-1 (CD11b/CD18 integrin) on polymorphonuclear leukocytes (PMNs) of healthy human donors (human, UniProt P11215 17-1152; P05107 23-769)
Experiment: flow cytometry, 30 µg/mL antibody on untreated versus PMA-treated human WBCs, % CD11b+ cells of live PMNs
Description: FIG. 3 is a chart showing the results of a flow cytometry analysis of activated polymorphonuclear leukocytes (“PMNs”) stained using 30 humanized anti-CD11b constructs prepared according to the present disclosure. The percentages of CD11b+ cells in live PMN were calculated by a gating based on a control, which is the cells stained with human IgG4 isotype, and are presented as means S.E.M. from four independent experiments. The white bars are CD11b+ cells in untreated white blood cells (WBCs), while the black bars are CD11b+ cells in PMA-treated WBCs.
The baseline CBRM1/5 antibody can distinguish between non-activated (resting) and activated form of Mac-1. In order to validate that humanized variants retained this characteristic, WBCs were isolated from 4 healthy human donors and activated in the absence or presence of phorbol 12-myristate-13-acetate (PMA). The cells were then stained with 30 μg/mL of each of the 30 humanized variants along with control antibody (human IgG4 isotype) and analyzed using flow cytometry. The percentages of CD11b+ cells in live PMNs were calculated by a gating based on a control, which is the cells stained with human IgG4 isotype, and are presented as means S.E.M. from four independent experiments. Variants containing VL5 lost a binding to Mac-1 in polymorphonuclear leukocytes (PMNs) regardless of the pairings with any VH variant (FIGS. 3-4). […] However, VH1/VL6 and all variants with VH2 preserved the characteristic of CBRM1/5 that can distinguish between non-activated (resting) and activated form of Mac-1, while the variants with VH4 or VH5 were likely to lose the specificity of the parental antibody, CBRM1/5 (FIGS. 3-4).

binding result: binds
B5: VH2/VL2 humanized anti-CD11b antibody (antibody, human IgG4 S228P, kappa)
heavy: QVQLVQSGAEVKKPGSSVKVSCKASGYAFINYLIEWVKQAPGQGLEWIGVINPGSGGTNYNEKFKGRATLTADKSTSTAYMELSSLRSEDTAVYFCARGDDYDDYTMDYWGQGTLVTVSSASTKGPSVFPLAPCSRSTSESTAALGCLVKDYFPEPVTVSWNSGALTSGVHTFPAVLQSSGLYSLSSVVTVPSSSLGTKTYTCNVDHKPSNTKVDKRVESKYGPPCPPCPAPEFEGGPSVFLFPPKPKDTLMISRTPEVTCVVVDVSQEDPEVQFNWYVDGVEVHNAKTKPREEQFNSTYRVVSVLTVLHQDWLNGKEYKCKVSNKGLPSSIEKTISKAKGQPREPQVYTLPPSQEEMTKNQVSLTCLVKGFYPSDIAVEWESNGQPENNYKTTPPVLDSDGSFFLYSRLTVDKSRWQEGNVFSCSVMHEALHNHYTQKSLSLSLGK
light: DIVLTQSPATLSLSPGERATLSCRASQSISNNLHWYQQKPGQAPRLLIKYASQSMSGIPSRFSGSGSGTDFTLTISSLEPEDFGMYFCQQSNSWPLTFGQGTKLEIKRTVAAPSVFIFPPSDEQLKSGTASVVCLLNNFYPREAKVQWKVDNALQSGNSQESVTEQDSKDSTYSLSSTLTLSKADYEKHKVYACEVTHQGLSSPVTKSFNRGEC
notes: Lead candidate; IgG4 with S241P and L248E; also called VH2 with VL2

binding result: binds
B6: VH4/VL6 humanized anti-CD11b antibody (antibody, human IgG4 S228P, kappa, V domains shown)
VH: QVQLVQSGAEVKKPGSSVKVSCKASGYAFINYLIEWVKQAPGQGLEWIGVINPGSGGTNYNEKFKGRVTITADKSTSTAYMELSSLRSEDTAVYYCARGDDYDDYTMDYWGQGTLVTVSS
VL: EIVLTQSPATLSLSPGERATLSCRASQSISNNLHWYQQKPGQAPRLLIKYASQSESGIPSRFSGSGSGTDFTLTISSLEPEDFGMYFCQQSNSWPLTFGQGTKLEIKR
notes: Lead candidate; IgG4 with S241P and L248E; also called VH4 with VL6

binding result: binds
B7: VH1/VL6 humanized anti-CD11b antibody (antibody, human IgG4 S228P, kappa, V domains shown)
VH: QVQLQQSGAELKRPGSSVKVSCKASGYAFINYLIEWVKQAPGQGLEWIGVINPGSGGTNYNEKFKGKATLTADKSSSTAYMELSSLRSDDSAVYFCARGDDYDDYTMDYWGQGTSVTVSS
VL: B6 VL
notes: Lead candidate; IgG4 with S241P and L248E; also called VH1 with VL6

The next lines start with the binder.

B1: VH2/VL6 humanized anti-CD11b antibody (antibody, human IgG4 S228P, kappa, V domains shown)
VH: B6 VH with V68A, I70L, Y95F
VL: B6 VL
notes: Lead candidate; IgG4 with S241P and L248E; also called VH2 with VL6
binding result: binds

B2: VH4/VL2 humanized anti-CD11b antibody (antibody, V domains shown)
VH: B6 VH
VL: DIVLTQSPATLSLSPGERATLSCRASQSISNNLHWYQQKPGQAPRLLIKYASQSMSGIPSRFSGSGSGTDFTLTISSLEPEDFGMYFCQQSNSWPLTFGQGTKLEIK
notes: Member of the group 'the variants with VH4 or VH5'; One of the 30 humanized variants
binding result: binds

B3: VH4/VL3 humanized anti-CD11b antibody (antibody, V domains shown)
VH: B6 VH
VL: B2 VL with D1E
notes: as for B2
binding result: binds

B4: VH2/VL3 humanized anti-CD11b antibody (antibody, human IgG4 S228P, kappa)
heavy: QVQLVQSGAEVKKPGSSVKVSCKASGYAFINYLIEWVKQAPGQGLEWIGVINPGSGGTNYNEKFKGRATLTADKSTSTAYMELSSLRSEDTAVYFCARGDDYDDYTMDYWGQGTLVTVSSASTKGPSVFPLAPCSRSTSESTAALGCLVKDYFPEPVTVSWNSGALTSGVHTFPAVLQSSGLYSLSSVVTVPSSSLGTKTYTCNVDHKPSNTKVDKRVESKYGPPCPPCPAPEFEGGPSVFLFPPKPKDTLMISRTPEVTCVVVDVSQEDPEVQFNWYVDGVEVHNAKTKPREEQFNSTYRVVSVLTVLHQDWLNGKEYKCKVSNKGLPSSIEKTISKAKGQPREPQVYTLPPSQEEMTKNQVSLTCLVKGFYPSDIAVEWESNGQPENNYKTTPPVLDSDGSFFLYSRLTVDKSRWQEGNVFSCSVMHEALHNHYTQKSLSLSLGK
light: B5 light with D1E
notes: Lead candidate; IgG4 with S241P and L248E; also called VH2 with VL3
binding result: binds
